Laboratory results reported in patent publication US6379670B1, “Methods for treatment of multiple sclerosis using peptide analogs of human myelin basic protein” (Neurocrine Biosciences, Inc., priority 1994, dated 2002).
Non-standard residues stand in square brackets, D forms with d. No end group written: not given here.

What was measured:
[1] = tested on: Dr2b-restricted T cell clone 5F6; assay: Cytokine production (TNF-α, IFN-γ) by T cell clone 5F6, EIA; type: cell-based, human
Method: As discussed in detail below, the production of cytokines may also be assessed. In particular, TNF-α and IFN-γ production are especially interesting. These pro-inflammatory cytokines are thought to play a role in the pathogenesis of the disease. Briefly, T cell clone is incubated in the presence of stimulating MBP peptide and peptide analog or control peptide (SWM) or medium only. After a 24 hour incubation, the levels of TNF-α and IFN-γ in the supernatant are determined using commercially available EIA kits (Endogen, Cambridge, Mass.).
The ability of the peptide analog ligand to influence cytokine production was next measured. The Dr2b-restricted T cell clone 5F6 was incubated in the presence of 3 μM MBP peptide with either 10 μM of NBI-5788 (SEQ ID NO:7) or SWM or medium only. As a control, cells were cultured in the presence of medium alone. After 24 hours, supernatants were removed and the levels of tumor necrosis factor alpha (TNF-α) and interferon-y (IFN-γ) determined using commercially available EIA kits.

[2] = tested on: Dr2b restricted human T cell clones reactive to MBP; assay: Human T cell proliferation, Dr2b restricted clones; type: cell-based; details: Dr2b restricted clone 5F6, 50 μM, FIG. 19
Method: Human T cells reactive to MBP (83-99) may alternatively be used to measure the ability of the peptide analog to inhibit proliferation of T cells induced by native MBP (83-99) peptide. MBP-specific T cells may be obtained as previously described by Martin et al., J. Immunol. 148:1359-1366, 1992. Briefly, T cell lines are established by culture of human T cells with irradiated, DR-matched peripheral blood cells in MEM supplemented with 2 mM L-glutamine, 50 μg/ml gentamicin, penicillin and streptomycin, 100 U/ml rIL-2, and 10% human AB negative serum. Proliferation of these T cell lines is stimulated by culturing a clone with varying concentration (1.1-30 μM) of native […] peptide, 50 μM of the peptide analog or SWM peptide, in the presence of irradiated, DR matched peripheral blood cells, following incubation for approximately 60 hours, the cells are pulsed with ^3H-thymidine for 12 hours and harvested. The amount of incorporated ^3H-thymidine is measured.
The ability of the peptide analogs NBI-5719, 5748, 5765, 5788 and 5789 (SEQ ID NOs: 4-8 respectively) to affect human T cell proliferation was assessed. A constant amount of peptide analog or the control peptide SWM (50 μM) was cultured with varying concentrations of native MBP(83-99) peptide (1.1-30 μM) in the presence of irradiated, DR matched peripheral blood cells and T cell clones derived from various MS patients. Human T cells (1×10^6) were cultured with DR matched, irradiated peripheral blood cells (PBL, 5×10^6) in medium containing IMDM supplemented with 3 μM MBP83-99, 2 mM L-glutamine, 50 μg/ml gentamicin penicillin/streptomycin, 100 U/ml r1L-2 and 10% human AB-negative serum. Cells were cultured for approximately 60 hours, pulsed with tritiated thymidine for 12 hours, and harvested. The amount of tritiated thymidine incorporated was measured, and the data represented as the mean plus or minus the standard error of the mean of replicate samples.
The ability of the peptide analog to inhibit the proliferative response of MBP-reactive T cells isolated from Dr2b (DrB1* 1501) individuals was determined. A constant amount of NBI-5788 (50 μM) was cultured with varying concentrations of native peptide (1.1-30 μM) in the presence of irradiated, DR matched peripheral blood cells and T cell clones derived from various MS patients.

[3] = tested on: peripheral blood mononuclear cells; assay: Frequency of antigen-reactive T cells in PBMC of untreated MS patients and healthy donors (split-well); type: cell-based, human; set-up: mean frequency of antigen-reactive T cells / frequency of antigen-reactive T cells in healthy subjects / antigen-reactive T cells, % Positive: concentration or dose not given beside the values
Method: Immune response to the peptide analog was assessed by measuring the frequency of proliferating peripheral blood T cells using a split-well microtiter method (i.e., number of positive wells {Δ cpm >1000, stimulation index>3} divided by the total number of wells assayed). Peripheral blood mononuclear cells (PBMC) were isolated from venous blood by Ficoll-Hypaque density gradient centrifugation, washed twice and resuspended in complete tissue culture medium (Iscove's modification of Dulbecco's medium containing 10% heat-inactivated, pooled, human A-B serum, 2 mM L-glutamine, 100 U/ml penicillin/streptomycin and 50 μg/ml gentamycin). PBMC from each patient were seeded at 10^5/well in 96 well, U-bottom microtiter plates containing 25 μg/ml whole MBP, 10 μg/ml NBI-5788 or medium alone in a volume of 200 μl. Three days later supernatants were collected and frozen at −80° C. and fresh medium containing IL-2 (10 U/ml) was added. IL-2-containg medium was refreshed on Day 7 and Day 11. On Day 14, the frequency of antigen response was determined by the “split well” technique. Briefly, cells from one primary well were split into replicate experimental wells in the presence of 10^5 freshly isolated autologous, irradiated peripheral blood mononuclear cells (APCs): one containing the original antigen (25 μg/ml) and one without antigen. Two days later supernatants were collected and the wells pulsed with 1 µCi/well [^3H]-thymidine ([…]) for the final 18 hours of culture. ^3H-Thymidine uptake was measured in a beta counter. […] The association between T cell frequency and NBI-5788 treatment was evaluated by χ^2 contingency analysis.

[4] = tested on: T cell lines LW 80, 88, 90 and 93; assay: Specificity and phenotype of APL-reactive T cell lines from patient; type: cell-based, human; details: 25 μg/ml antigen
Method: Four cell cultures from one patient ([…], 32% frequency) showing a response (> three-fold over background) were expanded into cell lines (LW 80, 88, 90 and 93) by incubation in IL-2 for 11-14 days (1-2 passages). Once sufficient cells had grown up, they were cultured with either medium alone or 25 μg/ml of either whole MBP, MBP (83-99) or APL NBI-5788. After 24 hours, the supernatants were collected and the level of cytokines determined (see FIGS. 22 to 26). The remaining cultures were pulsed with radiolabeled thymidine and the extent of incorporation determined.

[5] = tested on: NBI-5788-reactive or MBP-reactive T cell lines from MS patients; assay: Cross-reactivity of T cell lines (TCL) from MS patients, 3H-thymidine proliferation; type: cell-based, human
Method: To evaluate the degree of NBI-5788-specific reactivity induced by NBI-5788 treatment, we determined whether NBI-5788-reactive T cell lines generated from untreated or NBI-5788-treated patients cross-reacted with whole MBP or MBP peptide 83-99. T cell lines were generated from positive cultures in the frequency analysis by an additional cycle of co-culture with antigen. Specificity of positive lines was tested by culturing 2×10^4 T cells/well in triplicate with whole MBP, MBP83-99, NBI-5788 or medium alone in the presence of 10^5 APCs in a final volume of 200 μl/well. Two days later supernatants were pooled from replicate wells and frozen at −80° C. Wells were then pulsed with [^3H]-thymidine (1 μCi/well) for the final 18 hours of culture.

[6] = subject MS-2, untreated MS patient
[7] = subject MS-3, untreated MS patient
[8] = subject MS-7, untreated MS patient
[9] = subject MS-8, untreated MS patient
[10] = subject MS-9, untreated MS patient
[11] = subject MS-10, untreated MS patient
[12] = subject MS-11, untreated MS patient
[13] = patient MS-1, dose 20 mg, TCL 4

## NBI-5789: peptide analog of MBP (83-99), SEQ ID NO:8, sequence in FIG. 8 ([dA]KPVVHAFANIVTPRTP)
[1]; even at concentrations of 50 μM (data not shown)
  stimulation of cytokine production over background by the analog itself: None
[2]
  inhibition of MBP-dependent proliferation of clone 5F6: inhibited the MBP-dependent proliferation in a concentration dependent fashion

B1: Whole MBP: whole human myelin basic protein (protein, UniProt P02686 1-304, looked up)
Myelin basic protein: MGNHAGKRELNAEKASTNSETNRGESEKKRNLGELSRTTSEDNEVFGEADANQNNGTSSQDTAVTDSKRTADPKNAWQDAHPADPGSRPHLIRLFSRDAPGREDNTFKDRPSESDELQTIQEDSAATSESLDVMASQKRPSQRHGSKYLATASTMDHARHGFLPRHRDTGILDSIGRFFGGDRGAPKRGSGKDSHHPARTAHYGSLPQKSHGRTQDENPVVHFFKNIVTPRTPPPSQGKGRGLSLSRFSWGAEGQRPGFGYGGRASDYKSAHKGFKGVDAQGTLSKIFKLGGRDSRSGSPMARR
[3]; Total of healthy donors
  antigen-reactive T cells, Positive/total wells: 3/96
[3]; Total of untreated MS patients
  antigen-reactive T cells, Positive/total wells: 56/312
[3]; healthy donor HD-1
  antigen-reactive T cells, % Positive: 6.3%
  antigen-reactive T cells, Positive/total wells: 3/48
[3]; healthy donor HD-2
  antigen-reactive T cells, % Positive: 0%
  antigen-reactive T cells, Positive/total wells: 0/48
[3]; [6]
  antigen-reactive T cells, % Positive: 6.8%
  antigen-reactive T cells, Positive/total wells: 3/44
[3]; [7]
  antigen-reactive T cells, % Positive: 25.0%
  antigen-reactive T cells, Positive/total wells: 11/44
[3]; [8]
  antigen-reactive T cells, % Positive: 11.4%
  antigen-reactive T cells, Positive/total wells: 5/44
[3]; [9]
  antigen-reactive T cells, % Positive: 52.3%
  antigen-reactive T cells, Positive/total wells: 23/44
[3]; [10]
  antigen-reactive T cells, % Positive: 16.7%
  antigen-reactive T cells, Positive/total wells: 8/48
[3]; [11]
  antigen-reactive T cells, % Positive: 2.3%
  antigen-reactive T cells, Positive/total wells: 1/44
[3]; [12]
  antigen-reactive T cells, % Positive: 11.4%
  antigen-reactive T cells, Positive/total wells: 5/44
[3]; two healthy subjects, MBP-reactive cells detected in one of two
  frequency of antigen-reactive T cells in healthy subjects: 6.3%
[3]; untreated MS patients (n=7)
  mean frequency of antigen-reactive T cells: 18.0±6.3%
[4]; Line 80 of patient
  thymidine incorporation of T cell line: 1,457 ± 195 cpm
[4]; Line 88 of patient
  thymidine incorporation of T cell line: 977 ± 121 cpm
[4]; Line 90 of patient
  thymidine incorporation of T cell line: 1,604 ± 328 cpm
[4]; Line 93 of patient
  thymidine incorporation of T cell line: 630 ± 28 cpm
[5]; patient MS-1, dose 20 mg, TCL 2
  proliferative response of MBP-reactive TCL to antigen: 25,700 ± 5,266
[5]; [13]
  proliferative response of MBP-reactive TCL to antigen: 9,498 ± 745
  proliferative response of NBI-5788-reactive TCL to antigen: 772 ± 341
[5]; patient MS-1, dose 20 mg, TCL 5
  proliferative response of MBP-reactive TCL to antigen: 13,102 ± 1,286
[5]; patient MS-1, dose 20 mg, TCL 10
  proliferative response of MBP-reactive TCL to antigen: 54,562 ± 207
[5]; patient MS-1, dose 20 mg, TCL 14
  proliferative response of MBP-reactive TCL to antigen: 23,564 ± 854
[5]; patient MS-1, dose 20 mg, TCL 26
  proliferative response of MBP-reactive TCL to antigen: 48,157 ± 1,207
[5]; patient MS-1, dose 20 mg, TCL 36
  proliferative response of NBI-5788-reactive TCL to antigen: 2,515 ± 532
[5]; patient MS-1, dose 20 mg, TCL 45
  proliferative response of MBP-reactive TCL to antigen: 63,810 ± 1,117
[5]; patient MS-2, dose 20 mg, TCL 14
  proliferative response of MBP-reactive TCL to antigen: 16,000 ± 1,133
[5]; patient MS-3, Pretreat., TCL 9
  proliferative response of MBP-reactive TCL to antigen: 9,736 ± 247
[5]; patient MS-3, dose 20 mg, TCL 2
  proliferative response of NBI-5788-reactive TCL to antigen: 1,785 ± 66
[5]; patient MS-3, dose 20 mg, TCL 4
  proliferative response of NBI-5788-reactive TCL to antigen: 298 ± 41
[5]; patient MS-3, dose 20 mg, TCL 18
  proliferative response of NBI-5788-reactive TCL to antigen: 437 ± 191
[5]; patient MS-3, dose 20 mg, TCL 30
  proliferative response of NBI-5788-reactive TCL to antigen: 557 ± 210
[5]; patient MS-4, dose 20 mg, TCL 7
  proliferative response of MBP-reactive TCL to antigen: 5,308 ± 1,269
[5]; patient MS-4, dose 20 mg, TCL 18
  proliferative response of NBI-5788-reactive TCL to antigen: 5,983 ± 5602
[5]; patient MS-5, dose 20 mg, TCL 15
  proliferative response of NBI-5788-reactive TCL to antigen: 13,151 ± 9,967
[5]; patient MS-5, dose 20 mg, TCL 39
  proliferative response of NBI-5788-reactive TCL to antigen: 6,717 ± 558
[5]; patient MS-5, dose 20 mg, TCL 43
  proliferative response of NBI-5788-reactive TCL to antigen: 3,584 ± 1,068
[5]; patient MS-6, dose 10 mg, TCL 22
  proliferative response of NBI-5788-reactive TCL to antigen: 2,167 ± 53
[5]; patient MS-6, dose 10 mg, TCL 38
  proliferative response of NBI-5788-reactive TCL to antigen: 935 ± 65
[5]; patient MS-7, dose 5 mg, TCL 12
  proliferative response of NBI-5788-reactive TCL to antigen: 1,343 ± 498
[5]; patient MS-7, dose 5 mg, TCL 28
  proliferative response of NBI-5788-reactive TCL to antigen: 2,326 ± 1,300
[5]; patient MS-7, dose 5 mg, TCL 46
  proliferative response of MBP-reactive TCL to antigen: 17,019 ± 2,294
[5]; patient MS-8, Placebo, TCL 26
  proliferative response of MBP-reactive TCL to antigen: 68,704 ± 19,348
[5]; patient MS-8, Placebo, TCL 28
  proliferative response of MBP-reactive TCL to antigen: 47,279 ± 4,539
[5]; patient MS-8, Placebo, TCL 38
  proliferative response of MBP-reactive TCL to antigen: 63,253 ± 5,006
[5]; patient MS-8, Pretreat., TCL 22
  proliferative response of MBP-reactive TCL to antigen: 91,447 ± 3,378
[5]; patient MS-8, Pretreat., TCL 31
  proliferative response of MBP-reactive TCL to antigen: 7,379 ± 123
[5]; patient MS-8, Pretreat., TCL 47
  proliferative response of MBP-reactive TCL to antigen: 47,975 ± 10,326
[1]; 3 μM MBP peptide, 24 hours, FIG. 21
  IFN-γ production: ~160 pg/mL
